# Laboratory results taken from patent publication US20250171562A1 (ALK ABELL, published 2025).
# B1: CIgG4B1A1(no linker) (Fc fusion)
# chain 1: GPPCPPCPAPEFLGGPSVFLFPPKPKDTLMISRTPEVTCVVVDVSQEDPEVQFNWYVDGVEVHNAKTKPREEQFNSTYRVVSVLTVLHQDWLNGKEYKCKVSNKGLPSSIEKTISKAKGQPREPQVYTLPPCQEEMTKNQVSLWCLVKGFYPSDIAVEWESNGQPENNYKTTPPVLDSDGSFFLYSRLTVDKSRWQEGNVFSCSVMHEALHNHYTQKSLSLSLGKQVQLQESGGGLVQTGGSLRLSCAVHGRTFSNTGMGWFRQAPGNERQFVAIISPSGTSTYYADSVKGRFTISRDPAKNTVYLQMNSLKMDDTAVYYCAASYGSNWSTLRHQRRNEYDAWGQGTQVAVS
# chain 2: GPPCPPCPAPEFLGGPSVFLFPPKPKDTLMISRTPEVTCVVVDVSQEDPEVQFNWYVDGVEVHNAKTKPREEQFNSTYRVVSVLTVLHQDWLNGKEYKCKVSNKGLPSSIEKTISKAKGQPREPQVCTLPPSQEEMTKNQVSLSCAVKGFYPSDIAVEWESNGQPENNYKTTPPVLDSDGSFFLVSRLTVDKSRWQEGNVFSCSVMHEALHNHYTQKSLSLSLGKEVQLLESGGGLVQPGGSLRLSCAASGFTFGNYDMAWVRQAPGKRPEWVSSIDTGGDITHYADSVKGRFTISRDNAKNTLYLQMNSLRPEDTAVYWCATDEEYALGPNEFDYYGQGTLVTVSS
# B2: A1B1(G4S)4 (bispecific antibody)
# chain: EVQLLESGGGLVQPGGSLRLSCAASGFTFGNYDMAWVRQAPGKRPEWVSSIDTGGDITHYADSVKGRFTISRDNAKNTLYLQMNSLRPEDTAVYWCATDEEYALGPNEFDYYGQGTLVTVSGGGGSGGGGSGGGGSGGGGSQVQLQESGGGLVQTGGSLRLSCAVHGRTFSNTGMGWFRQAPGNERQFVAIISPSGTSTYYADSVKGRFTISRDPAKNTVYLQMNSLKMDDTAVYYCAASYGSNWSTLRHQRRNEYDAWGQGTQVAVS
# B3: B1A1(G4S)4 (bispecific antibody)
# chain: QVQLQESGGGLVQTGGSLRLSCAVHGRTFSNTGMGWFRQAPGNERQFVAIISPSGTSTYYADSVKGRFTISRDPAKNTVYLQMNSLKMDDTAVYYCAASYGSNWSTLRHQRRNEYDAWGQGTQVAVSGGGGSGGGGSGGGGSGGGGSEVQLLESGGGLVQPGGSLRLSCAASGFTFGNYDMAWVRQAPGKRPEWVSSIDTGGDITHYADSVKGRFTISRDNAKNTLYLQMNSLRPEDTAVYWCATDEEYALGPNEFDYYGQGTLVTVS
# notes: two sdAbs linked by a peptide linker
# B4: CIgG4B1A1(EAAAK) (Fc fusion)
# chain 1: GPPCPPCPAPEFLGGPSVFLFPPKPKDTLMISRTPEVTCVVVDVSQEDPEVQFNWYVDGVEVHNAKTKPREEQFNSTYRVVSVLTVLHQDWLNGKEYKCKVSNKGLPSSIEKTISKAKGQPREPQVYTLPPCQEEMTKNQVSLWCLVKGFYPSDIAVEWESNGQPENNYKTTPPVLDSDGSFFLYSRLTVDKSRWQEGNVFSCSVMHEALHNHYTQKSLSLSLGKEAAAKQVQLQESGGGLVQTGGSLRLSCAVHGRTFSNTGMGWFRQAPGNERQFVAIISPSGTSTYYADSVKGRFTISRDPAKNTVYLQMNSLKMDDTAVYYCAASYGSNWSTLRHQRRNEYDAWGQGTQVAVS
# chain 2: GPPCPPCPAPEFLGGPSVFLFPPKPKDTLMISRTPEVTCVVVDVSQEDPEVQFNWYVDGVEVHNAKTKPREEQFNSTYRVVSVLTVLHQDWLNGKEYKCKVSNKGLPSSIEKTISKAKGQPREPQVCTLPPSQEEMTKNQVSLSCAVKGFYPSDIAVEWESNGQPENNYKTTPPVLDSDGSFFLVSRLTVDKSRWQEGNVFSCSVMHEALHNHYTQKSLSLSLGKEAAAKEVQLLESGGGLVQPGGSLRLSCAASGFTFGNYDMAWVRQAPGKRPEWVSSIDTGGDITHYADSVKGRFTISRDNAKNTLYLQMNSLRPEDTAVYWCATDEEYALGPNEFDYYGQGTLVTVSS
# B5: CIgG4B1A1(GS) (Fc fusion)
# chain 1: GPPCPPCPAPEFLGGPSVFLFPPKPKDTLMISRTPEVTCVVVDVSQEDPEVQFNWYVDGVEVHNAKTKPREEQFNSTYRVVSVLTVLHQDWLNGKEYKCKVSNKGLPSSIEKTISKAKGQPREPQVYTLPPCQEEMTKNQVSLWCLVKGFYPSDIAVEWESNGQPENNYKTTPPVLDSDGSFFLYSRLTVDKSRWQEGNVFSCSVMHEALHNHYTQKSLSLSLGKGSQVQLQESGGGLVQTGGSLRLSCAVHGRTFSNTGMGWFRQAPGNERQFVAIISPSGTSTYYADSVKGRFTISRDPAKNTVYLQMNSLKMDDTAVYYCAASYGSNWSTLRHQRRNEYDAWGQGTQVAVS
# chain 2: GPPCPPCPAPEFLGGPSVFLFPPKPKDTLMISRTPEVTCVVVDVSQEDPEVQFNWYVDGVEVHNAKTKPREEQFNSTYRVVSVLTVLHQDWLNGKEYKCKVSNKGLPSSIEKTISKAKGQPREPQVCTLPPSQEEMTKNQVSLSCAVKGFYPSDIAVEWESNGQPENNYKTTPPVLDSDGSFFLVSRLTVDKSRWQEGNVFSCSVMHEALHNHYTQKSLSLSLGKGSEVQLLESGGGLVQPGGSLRLSCAASGFTFGNYDMAWVRQAPGKRPEWVSSIDTGGDITHYADSVKGRFTISRDNAKNTLYLQMNSLRPEDTAVYWCATDEEYALGPNEFDYYGQGTLVTVSS
# B6: CIgG4B1A1(G2SG2S) (Fc fusion)
# chain 1: GPPCPPCPAPEFLGGPSVFLFPPKPKDTLMISRTPEVTCVVVDVSQEDPEVQFNWYVDGVEVHNAKTKPREEQFNSTYRVVSVLTVLHQDWLNGKEYKCKVSNKGLPSSIEKTISKAKGQPREPQVYTLPPCQEEMTKNQVSLWCLVKGFYPSDIAVEWESNGQPENNYKTTPPVLDSDGSFFLYSRLTVDKSRWQEGNVFSCSVMHEALHNHYTQKSLSLSLGKGGSGGSQVQLQESGGGLVQTGGSLRLSCAVHGRTFSNTGMGWFRQAPGNERQFVAIISPSGTSTYYADSVKGRFTISRDPAKNTVYLQMNSLKMDDTAVYYCAASYGSNWSTLRHQRRNEYDAWGQGTQVAVS
# chain 2: GPPCPPCPAPEFLGGPSVFLFPPKPKDTLMISRTPEVTCVVVDVSQEDPEVQFNWYVDGVEVHNAKTKPREEQFNSTYRVVSVLTVLHQDWLNGKEYKCKVSNKGLPSSIEKTISKAKGQPREPQVCTLPPSQEEMTKNQVSLSCAVKGFYPSDIAVEWESNGQPENNYKTTPPVLDSDGSFFLVSRLTVDKSRWQEGNVFSCSVMHEALHNHYTQKSLSLSLGKGGSGGSEVQLLESGGGLVQPGGSLRLSCAASGFTFGNYDMAWVRQAPGKRPEWVSSIDTGGDITHYADSVKGRFTISRDNAKNTLYLQMNSLRPEDTAVYWCATDEEYALGPNEFDYYGQGTLVTVSS
# B7: CIgG4B1A1(G2S) (Fc fusion)
# chain 1: GPPCPPCPAPEFLGGPSVFLFPPKPKDTLMISRTPEVTCVVVDVSQEDPEVQFNWYVDGVEVHNAKTKPREEQFNSTYRVVSVLTVLHQDWLNGKEYKCKVSNKGLPSSIEKTISKAKGQPREPQVYTLPPCQEEMTKNQVSLWCLVKGFYPSDIAVEWESNGQPENNYKTTPPVLDSDGSFFLYSRLTVDKSRWQEGNVFSCSVMHEALHNHYTQKSLSLSLGKGGSQVQLQESGGGLVQTGGSLRLSCAVHGRTFSNTGMGWFRQAPGNERQFVAIISPSGTSTYYADSVKGRFTISRDPAKNTVYLQMNSLKMDDTAVYYCAASYGSNWSTLRHQRRNEYDAWGQGTQVAVS
# chain 2: GPPCPPCPAPEFLGGPSVFLFPPKPKDTLMISRTPEVTCVVVDVSQEDPEVQFNWYVDGVEVHNAKTKPREEQFNSTYRVVSVLTVLHQDWLNGKEYKCKVSNKGLPSSIEKTISKAKGQPREPQVCTLPPSQEEMTKNQVSLSCAVKGFYPSDIAVEWESNGQPENNYKTTPPVLDSDGSFFLVSRLTVDKSRWQEGNVFSCSVMHEALHNHYTQKSLSLSLGKGGSEVQLLESGGGLVQPGGSLRLSCAASGFTFGNYDMAWVRQAPGKRPEWVSSIDTGGDITHYADSVKGRFTISRDNAKNTLYLQMNSLRPEDTAVYWCATDEEYALGPNEFDYYGQGTLVTVSS
# B8: CIgG4B1A1(EAAAK)2 (Fc fusion)
# chain 1: GPPCPPCPAPEFLGGPSVFLFPPKPKDTLMISRTPEVTCVVVDVSQEDPEVQFNWYVDGVEVHNAKTKPREEQFNSTYRVVSVLTVLHQDWLNGKEYKCKVSNKGLPSSIEKTISKAKGQPREPQVYTLPPCQEEMTKNQVSLWCLVKGFYPSDIAVEWESNGQPENNYKTTPPVLDSDGSFFLYSRLTVDKSRWQEGNVFSCSVMHEALHNHYTQKSLSLSLGKEAAAKEAAAKQVQLQESGGGLVQTGGSLRLSCAVHGRTFSNTGMGWFRQAPGNERQFVAIISPSGTSTYYADSVKGRFTISRDPAKNTVYLQMNSLKMDDTAVYYCAASYGSNWSTLRHQRRNEYDAWGQGTQVAVS
# chain 2: GPPCPPCPAPEFLGGPSVFLFPPKPKDTLMISRTPEVTCVVVDVSQEDPEVQFNWYVDGVEVHNAKTKPREEQFNSTYRVVSVLTVLHQDWLNGKEYKCKVSNKGLPSSIEKTISKAKGQPREPQVCTLPPSQEEMTKNQVSLSCAVKGFYPSDIAVEWESNGQPENNYKTTPPVLDSDGSFFLVSRLTVDKSRWQEGNVFSCSVMHEALHNHYTQKSLSLSLGKEAAAKEAAAKEVQLLESGGGLVQPGGSLRLSCAASGFTFGNYDMAWVRQAPGKRPEWVSSIDTGGDITHYADSVKGRFTISRDNAKNTLYLQMNSLRPEDTAVYWCATDEEYALGPNEFDYYGQGTLVTVSS
# B9: CIgG4B1A1(G3S) (Fc fusion)
# chain 1: GPPCPPCPAPEFLGGPSVFLFPPKPKDTLMISRTPEVTCVVVDVSQEDPEVQFNWYVDGVEVHNAKTKPREEQFNSTYRVVSVLTVLHQDWLNGKEYKCKVSNKGLPSSIEKTISKAKGQPREPQVYTLPPCQEEMTKNQVSLWCLVKGFYPSDIAVEWESNGQPENNYKTTPPVLDSDGSFFLYSRLTVDKSRWQEGNVFSCSVMHEALHNHYTQKSLSLSLGKGGGSQVQLQESGGGLVQTGGSLRLSCAVHGRTFSNTGMGWFRQAPGNERQFVAIISPSGTSTYYADSVKGRFTISRDPAKNTVYLQMNSLKMDDTAVYYCAASYGSNWSTLRHQRRNEYDAWGQGTQVAVS
# chain 2: GPPCPPCPAPEFLGGPSVFLFPPKPKDTLMISRTPEVTCVVVDVSQEDPEVQFNWYVDGVEVHNAKTKPREEQFNSTYRVVSVLTVLHQDWLNGKEYKCKVSNKGLPSSIEKTISKAKGQPREPQVCTLPPSQEEMTKNQVSLSCAVKGFYPSDIAVEWESNGQPENNYKTTPPVLDSDGSFFLVSRLTVDKSRWQEGNVFSCSVMHEALHNHYTQKSLSLSLGKGGGSEVQLLESGGGLVQPGGSLRLSCAASGFTFGNYDMAWVRQAPGKRPEWVSSIDTGGDITHYADSVKGRFTISRDNAKNTLYLQMNSLRPEDTAVYWCATDEEYALGPNEFDYYGQGTLVTVSS
# Biological target: T1, recombinant human IgE (human, UniProt P01854-1 1-428)
# T1 construct: made in-house (ALK); preloaded on immobilised FcεRIα in the displacement ELISA
# Test: IgE-FcεRIα displacement ELISA
# Procedure, shortened: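 sdAbs at pM–μM were incubated 1 h on preformed complexes of 13 ng/ml recombinant human IgE with avi-tag-biotinylated human FcεRIα captured on streptavidin.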
# T1 sequence (P01854 other isoform, or with tags, fused parts or gaps): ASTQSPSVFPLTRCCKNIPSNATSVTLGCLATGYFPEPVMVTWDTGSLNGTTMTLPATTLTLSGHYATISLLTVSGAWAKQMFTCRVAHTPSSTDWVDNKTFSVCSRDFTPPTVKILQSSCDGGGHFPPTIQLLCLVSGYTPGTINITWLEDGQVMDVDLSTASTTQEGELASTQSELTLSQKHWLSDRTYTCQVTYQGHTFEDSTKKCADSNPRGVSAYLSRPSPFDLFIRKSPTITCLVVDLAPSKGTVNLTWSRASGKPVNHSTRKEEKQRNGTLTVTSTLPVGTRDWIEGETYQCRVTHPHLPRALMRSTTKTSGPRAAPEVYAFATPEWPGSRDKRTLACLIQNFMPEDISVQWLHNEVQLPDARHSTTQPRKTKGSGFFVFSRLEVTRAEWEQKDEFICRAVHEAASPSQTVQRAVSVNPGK
EC50 [nM],Max effect [%],Binder
14,90,B1
0.9,> 95,B2
1.9,> 95,B3
3,> 95,B4
9.1,> 95,B5
3.8,> 95,B6
3.4,> 95,B7
4.1,> 95,B8
3.1,> 95,B9
